# In article PMC5583966, “Sustained-release study on Exenatide loaded into mesoporous silica nanoparticles: in vitro characterization and in vivo evaluation” (DARU Journal of Pharmaceutical Sciences, 2017):
# How the values were obtained:
# [1] = Pharmacokinetics study after s.c. injection in SD rats; type: in vivo
# Procedure: Pharmacokinetic studies of EXT-Sol and EXT-SBA-15 were conducted in healthy male SD rats. Sixteen rats were randomly divided into two groups (n = 8) and fasted overnight with free access to water before administration. SD rats were received s.c. administration of EXT-Sol and EXT-SBA-15 at a single EXT dose of 50 μg/kg, respectively. The blood samples (0.5 mL) of EXT-Sol treatment group were collected from the rat’s orbit and at specific time 0, 0.25, 0.5, 1, 1.5, 2, 3, 4, 6, 8 h after injection. The blood samples (0.5 mL) of EXT-SBA-15 treatment group (0.5 mL) were collected at 0, 0.5, 1, 1.5, 2, 3, 5, 8, 12, 24, 36, 48, 72, 120 h. The collected blood samples were centrifuged at 503×g for 10 min to obtain the plasma, which were stored at −80 °C for further analysis. The plasma concentrations of EXT were measured by Exendin-4 ELISA kit according to the instructions supplied by the manufacturer. The relevant pharmacokinetic parameters were analyzed by PKSolver 2.0 [25].
# [2] = tested on: STZ-induced type 2 diabetic ICR mice (blood glucose); experiment: In vivo pharmacodynamics study: blood glucose of STZ-induced type 2 diabetic mice; details: s.c., EXT 3 μg/kg/d twice daily, days 0-25, measured before administration, n = 6
# Procedure: Type 2 diabetes model was induced by STZ with multiple injection method into ICR mice. Each mouse was injected intraperitoneally with 30 mg/kg⋅d STZ in 0.1 mol/L citric acid buffer (pH 5.0). One week after the injection, mice were fasted for 12 h (with free access to water) before their blood glucose was measured by glucometer (Accu-Chek Performa, Germany). Diabetic mice were considered by fasting blood glucose above 11.1 mmol/L. Six healthy normal ICR mice were used as the blank control group (A). Twenty-four mice that had developed type 2 diabetes were randomly divided into four experimental groups and received s.c. administration of saline (B), EXT-Sol (C), EXT-SBA-15 (D) and SBA-15 (E), respectively. Group A and B received saline twice daily via s.c. administration. Group C received EXT-Sol twice daily with a dose of EXT (3 μg/kg/d). Group D and E were administrated a single injection of EXT-SBA-15 (600 μg/kg) and SBA-15 via s.c. administration, respectively. The blood sample (about 0.2 ml) was collected from the tail-vein on days 0, 1, 5, 10, 15, 20, 25 for all groups, and blood glucose levels were determined measured simultaneously with a glucometer before administration.
# [3] = single EXT dose 50 μg/kg, plasma, Exendin-4 ELISA, Mean ± SD, n = 8
# [4] = single EXT dose 50 μg/kg, plasma, Exendin-4 ELISA, two-compartment model, Mean ± SD, n = 8
substance,measurement,setting,value
"EXT-Sol: Exenatide (EXT) solution, injected s.c. as comparator",time at which plasma concentration had decreased to baseline,[1]; EXT dose 50 μg/kg,8 h
same,AUC0→t,[1]; [3],1.71 ± 0.07 ng⋅ml^−1⋅h
same,AUC0→∞,[1]; [3],1.71 ± 0.07 ng⋅ml^−1⋅h
same,MRT mean residence time,[1]; [3],68.4 ± 4.2 min
same,c max peak concentration,[1]; [3],1.16 ± 0.09 ng⋅ml^−1
same,t 1/2(α) half-life of distribution,[1]; [4],13.2 ± 1.8 min
same,t 1/2(β) half-life of elimination,[1]; [4],36 ± 4.8 min
same,"long-term glucose lowering effect, up to 25 days",[2],not observed
